Measured values taken from paper PMC9544338, “Restoration of the GTPase activity and cellular interactions of Gαo mutants by Zn^2+ in GNAO1 encephalopathy models” (Science Advances, 2022).

Target: T1, Gαo-GFP (C-terminally tagged) wild type (human, UniProt P09471 1-354)
T1 construct: Gαo (GNAO1); also called WT Gαo; source: N2a cells, transfected, in lysate; not shown: GFP, C-terminal, kept
Assay: co-IP; N2a cells cotransfected with His6-RGS19 and Gαo-GFP (C-terminally tagged) variants, treated with 1 μM ZPT for 3 hours before IP of Gαo with a nanobody against GFP; Western blot; fold against DMSO-treated cells
Conditions: partners not purified

T1 sequence (P09471 whole entry): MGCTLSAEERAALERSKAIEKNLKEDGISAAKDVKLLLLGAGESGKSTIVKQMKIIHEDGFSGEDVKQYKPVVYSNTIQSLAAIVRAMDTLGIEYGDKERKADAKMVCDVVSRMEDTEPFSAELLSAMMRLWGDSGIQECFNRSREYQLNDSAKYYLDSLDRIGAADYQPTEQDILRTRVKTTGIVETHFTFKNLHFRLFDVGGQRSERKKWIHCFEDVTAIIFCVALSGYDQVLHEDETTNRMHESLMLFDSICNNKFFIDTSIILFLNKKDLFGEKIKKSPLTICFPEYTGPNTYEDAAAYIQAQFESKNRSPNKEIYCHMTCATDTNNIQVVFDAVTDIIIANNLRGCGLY

- fold increase of the interaction by ZPT over DMSO: ~2 fold
B1: His6-RGS19 (natural protein, UniProt P49795 1-217, looked up)
chain: MPTPHEAEKQITGPEEADRPPSMSSHDTASPAAPSRNPCCLCWCCCCSCSWNQERRRAWQASRESKLQPLPSCEVCATPSPEEVQSWAQSFDKLMHSPAGRSVFRAFLRTEYSEENMLFWLACEELKAEANQHVVDEKARLIYEDYVSILSPKEVSLDSRVREGINKKMQEPSAHTFDDAQLQIYTLMHRDSYPRFLSSPTYRALLLQGPSQSSSEA
notes: RGS19 (regulator of G protein signaling 19); plasmid previously described; source: N2a cells, transfected, in lysate
